B1: ZNF449 (parent)
chain: RIHSGEEPHKCPECGKRFLRSSDL

Variants of: B1
Test: protein stability index of a GFP-peptide fusion (GPS, HEK-293T) (PSI 1-6); higher = more stable
Conditions: c terminus: a fixed tail appended
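Note: lentivirally expressed fusions sorted by FACS into six bins by GFP to DsRed ratio, PSI derived from sequencing read proportions per bin multiplied by bin number.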

Variant | protein stability index
RIHQGEEPHKCPECGKRFLRSSDL [S4Q] | 4.12
RIHNGEEPHKCPECGKRFLRSSDL [S4N] | 4
RIHFGEEPHKCPECGKRFLRSSDL [S4F] | 2.3
RIHMGEEPHKCPECGKRFLRSSDL [S4M] | 2.55
RIHHGEEPHKCPECGKRFLRSSDL [S4H] | 3.18
RIHPGEEPHKCPECGKRFLRSSDL [S4P] | 3.16
RIHRGEEPHKCPECGKRFLRSSDL [S4R] | 2.54
RIHDGEEPHKCPECGKRFLRSSDL [S4D] | 3.56
RIHIGEEPHKCPECGKRFLRSSDL [S4I] | 3.07
RIHKGEEPHKCPECGKRFLRSSDL [S4K] | 3.19
RIHGGEEPHKCPECGKRFLRSSDL [S4G] | 3.06
RIHAGEEPHKCPECGKRFLRSSDL [S4A] | 3.34
RIHVGEEPHKCPECGKRFLRSSDL [S4V] | 2.44
RIHEGEEPHKCPECGKRFLRSSDL [S4E] | 3.7
RIHYGEEPHKCPECGKRFLRSSDL [S4Y] | 2.84
RIHTGEEPHKCPECGKRFLRSSDL [S4T] | 3.53
RIHLGEEPHKCPECGKRFLRSSDL [S4L] | 3.19
RIHWGEEPHKCPECGKRFLRSSDL [S4W] | 2.5
LIHSGEEPHKCPECGKRFLRSSDL [R1L] | 2.92
QIHSGEEPHKCPECGKRFLRSSDL [R1Q] | 4.11
NIHSGEEPHKCPECGKRFLRSSDL [R1N] | 3.72
IIHSGEEPHKCPECGKRFLRSSDL [R1I] | 2.38
EIHSGEEPHKCPECGKRFLRSSDL [R1E] | 4.41
TIHSGEEPHKCPECGKRFLRSSDL [R1T] | 3.37

Variant | protein stability index
SIHSGEEPHKCPECGKRFLRSSDL [R1S] | 3.86
WIHSGEEPHKCPECGKRFLRSSDL [R1W] | 2.28
MIHSGEEPHKCPECGKRFLRSSDL [R1M] | 3.4
PIHSGEEPHKCPECGKRFLRSSDL [R1P] | 4.04
VIHSGEEPHKCPECGKRFLRSSDL [R1V] | 3.05
HIHSGEEPHKCPECGKRFLRSSDL [R1H] | 4.07
CIHSGEEPHKCPECGKRFLRSSDL [R1C] | 5.29
DIHSGEEPHKCPECGKRFLRSSDL [R1D] | 4.13
KIHSGEEPHKCPECGKRFLRSSDL [R1K] | 3.6
FIHSGEEPHKCPECGKRFLRSSDL [R1F] | 1.38
AIHSGEEPHKCPECGKRFLRSSDL [R1A] | 3.75
GIHSGEEPHKCPECGKRFLRSSDL [R1G] | 3.74
YIHSGEEPHKCPECGKRFLRSSDL [R1Y] | 1.9
RITSGEEPHKCPECGKRFLRSSDL [H3T] | 3.81
RIISGEEPHKCPECGKRFLRSSDL [H3I] | 3.25
RISSGEEPHKCPECGKRFLRSSDL [H3S] | 3.74
RIFSGEEPHKCPECGKRFLRSSDL [H3F] | 2.63
RIQSGEEPHKCPECGKRFLRSSDL [H3Q] | 4.33
RIMSGEEPHKCPECGKRFLRSSDL [H3M] | 3.05
RIKSGEEPHKCPECGKRFLRSSDL [H3K] | 2.7
RIVSGEEPHKCPECGKRFLRSSDL [H3V] | 3.34
RINSGEEPHKCPECGKRFLRSSDL [H3N] | 3.55
RIDSGEEPHKCPECGKRFLRSSDL [H3D] | 3.85
RIYSGEEPHKCPECGKRFLRSSDL [H3Y] | 3.32

Variant | protein stability index
RIPSGEEPHKCPECGKRFLRSSDL [H3P] | 3.69
RIASGEEPHKCPECGKRFLRSSDL [H3A] | 3.48
RILSGEEPHKCPECGKRFLRSSDL [H3L] | 3.69
RIGSGEEPHKCPECGKRFLRSSDL [H3G] | 2.72
RIESGEEPHKCPECGKRFLRSSDL [H3E] | 3.48
RIRSGEEPHKCPECGKRFLRSSDL [H3R] | 3.02
RICSGEEPHKCPECGKRFLRSSDL [H3C] | 3.76
RDHSGEEPHKCPECGKRFLRSSDL [I2D] | 4.06
RYHSGEEPHKCPECGKRFLRSSDL [I2Y] | 3.79
RAHSGEEPHKCPECGKRFLRSSDL [I2A] | 3.42
RFHSGEEPHKCPECGKRFLRSSDL [I2F] | 3.1
RLHSGEEPHKCPECGKRFLRSSDL [I2L] | 3.77
RKHSGEEPHKCPECGKRFLRSSDL [I2K] | 3.43
RQHSGEEPHKCPECGKRFLRSSDL [I2Q] | 3.91
RHHSGEEPHKCPECGKRFLRSSDL [I2H] | 3.46
RTHSGEEPHKCPECGKRFLRSSDL [I2T] | 4.76
RCHSGEEPHKCPECGKRFLRSSDL [I2C] | 5.05
RWHSGEEPHKCPECGKRFLRSSDL [I2W] | 3.9
RSHSGEEPHKCPECGKRFLRSSDL [I2S] | 3.18
RGHSGEEPHKCPECGKRFLRSSDL [I2G] | 2.78
RRHSGEEPHKCPECGKRFLRSSDL [I2R] | 3.7
RMHSGEEPHKCPECGKRFLRSSDL [I2M] | 3.48
RNHSGEEPHKCPECGKRFLRSSDL [I2N] | 4.19
RVHSGEEPHKCPECGKRFLRSSDL [I2V] | 3.98

Variant | protein stability index
RPHSGEEPHKCPECGKRFLRSSDL [I2P] | 3.57
REHSGEEPHKCPECGKRFLRSSDL [I2E] | 3.5
RIHSGNEPHKCPECGKRFLRSSDL [E6N] | 3.08
RIHSGMEPHKCPECGKRFLRSSDL [E6M] | 2.57
RIHSGLEPHKCPECGKRFLRSSDL [E6L] | 2.92
RIHSGPEPHKCPECGKRFLRSSDL [E6P] | 3.69
RIHSGQEPHKCPECGKRFLRSSDL [E6Q] | 3.1
RIHSGREPHKCPECGKRFLRSSDL [E6R] | 3.24
RIHSGDEPHKCPECGKRFLRSSDL [E6D] | 3.25
RIHSGFEPHKCPECGKRFLRSSDL [E6F] | 2.95
RIHSGHEPHKCPECGKRFLRSSDL [E6H] | 2.79
RIHSGGEPHKCPECGKRFLRSSDL [E6G] | 3.23
RIHSGKEPHKCPECGKRFLRSSDL [E6K] | 2.88
RIHSGAEPHKCPECGKRFLRSSDL [E6A] | 3.24
RIHSGIEPHKCPECGKRFLRSSDL [E6I] | 3.09
RIHSFEEPHKCPECGKRFLRSSDL [G5F] | 3.22
RIHSHEEPHKCPECGKRFLRSSDL [G5H] | 4.07
RIHSIEEPHKCPECGKRFLRSSDL [G5I] | 3.34
RIHSKEEPHKCPECGKRFLRSSDL [G5K] | 3.41
RIHSNEEPHKCPECGKRFLRSSDL [G5N] | 3.44
RIHSLEEPHKCPECGKRFLRSSDL [G5L] | 3.68
RIHSREEPHKCPECGKRFLRSSDL [G5R] | 3.2

From the supplement of paper PMC10567573
